Reference: patent publication US20260191905A1 (MODERNATX, published 2026)
Residue numbers refer to the chain shown, from its start.

Key:
[1] = target: T1, human GPC3 on HepG2 cells (human, UniProt P51654 25-554); assay: FACS, phage-displayed clone on HepG2, well B4; same clone on A-431 (no GPC3): 1.12%
T1 construct: whole, on cells

[2] = target: T1, human GPC3 on HepG2 cells; assay: FACS, phage-displayed clone on HepG2, well B4; same clone on A-431 (no GPC3): 1095.02
[3] = target: T1, human GPC3 on HepG2 cells; assay: FACS, periplasmic extract 1:5 + anti-c-myc + GAM-APC on HepG2, well B4; same on A-431: 0.54%
[4] = target: T1, human GPC3 on HepG2 cells; assay: FACS, periplasmic extract 1:5 + anti-c-myc + GAM-APC on HepG2, well B4; same on A-431: 873.16
[5] = target: T2, human GPC3 recombinant protein (human, UniProt P51654 25-559); assay: SPR (Biacore) off-rate screen, periplasmic extract over human GPC3 on CM5; R0 38.8
T2 construct: also called huGPC3; Human GPC3 protein
Experimental: (§1) Human GPC3 protein in acetate buffer, pH 5.0, was immobilized in a sensor chip CM5 (GE Healthcare; Cat. Nr. BR-1005-30; Lot. Nr.10245232) and successful immobilization was confirmed by using a commercially available human GPC3 antibody (R&D cat. nr. MAB2119) and the anti-GPC3-VHH-Fc (both at 10 μg/mL). Periplasmic extracts from the MP were diluted in Biacore Buffer (0.01 M HEPES pH 7.4, 0.15 M NaCl, 3 mM EDTA, 0.05% P20) and injected over 2 minutes at 30 μL/min. 10 μl of 10 mM NaOH/1M NaCl were injected between samples and off-rates were measured over 5 minutes. Off-rate ([…]) were calculated using BIACORE software 1:1 interaction Langmuir binding model.

[6] = target: T2, human GPC3 recombinant protein; assay: SPR (Biacore), summary table; Chi2 0.207; Profile 'Very good'
Experimental: (§2) Affinities of the 19 VHH-His tagged domains were then determined by BiaCore assay. Human GPC3 protein (Sino biological cat. nr. 10088-H08H-500) was immobilized on CM5 sensor chip (GE Healthcare) as antigen. Purified VHH-His tagged domains were diluted in BiaCore buffer (0.01 M HEPES pH 7.4, 0.15 M NaCl, 3 mM EDTA, 0.05% P20) to 500 nM and injected over 2 minutes at […] followed by a half dilution series to 7.8 nM. 10 μl of 10 mM NaOH/1M NaCl were injected between samples and then off-rate wash was 5 minutes.

[7] = target: T1, human GPC3 on HepG2 cells; assay: FACS, phage-displayed clone on HepG2, well E4; same clone on A-431 (no GPC3): 2.08%
[8] = target: T1, human GPC3 on HepG2 cells; assay: FACS, phage-displayed clone on HepG2, well E4; same clone on A-431 (no GPC3): 1163.66
[9] = target: T1, human GPC3 on HepG2 cells; assay: FACS, periplasmic extract 1:5 + anti-c-myc + GAM-APC on HepG2, well E4; same on A-431: 0.25%
[10] = target: T1, human GPC3 on HepG2 cells; assay: FACS, periplasmic extract 1:5 + anti-c-myc + GAM-APC on HepG2, well E4; same on A-431: 760.97
[11] = target: T2, human GPC3 recombinant protein; assay: SPR (Biacore) off-rate screen, periplasmic extract over human GPC3 on CM5; R0 61.6
Experimental: as §1

[12] = target: T2, human GPC3 recombinant protein; assay: SPR (Biacore), VHH-His over human GPC3 on CM5; fit 62.5 - 7.8 nM; Rmax 22.5 RU; Chi2 0.207
Experimental: as §2

[13] = target: T2, human GPC3 recombinant protein; assay: SPR (Biacore) off-rate screen, periplasmic extract over human GPC3 on CM5; R0 40.0
Experimental: as §1

[14] = target: T2, human GPC3 recombinant protein; assay: SPR (Biacore) off-rate screen, periplasmic extract over human GPC3 on CM5; R0 48.2
Experimental: as §1

[15] = target: T2, human GPC3 recombinant protein; assay: SPR (Biacore) off-rate screen, periplasmic extract over human GPC3 on CM5; R0 34.4
Experimental: as §1

[16] = target: T2, human GPC3 recombinant protein; assay: SPR (Biacore) off-rate screen, periplasmic extract over human GPC3 on CM5; R0 36.0
Experimental: as §1

[17] = target: T2, human GPC3 recombinant protein; assay: SPR (Biacore) off-rate screen, periplasmic extract over human GPC3 on CM5; R0 26.5
Experimental: as §1

[18] = target: T2, human GPC3 recombinant protein; assay: SPR (Biacore), summary table; Chi2 0.465; Profile 'Very good'; FIG. 18 prints 6.01E-09
[19] = target: T2, human GPC3 recombinant protein; assay: SPR (Biacore), VHH-His over human GPC3 on CM5; fit 197.5 - 17.34 nM; Rmax 10.9 RU; Chi2 0.465
Experimental: as §2

[20] = target: T2, human GPC3 recombinant protein; assay: SPR (Biacore), summary table; Chi2 0.466; Profile 'Good'
[21] = target: T2, human GPC3 recombinant protein; assay: SPR (Biacore) off-rate screen, periplasmic extract over human GPC3 on CM5; R0 46.9
Experimental: as §1

[22] = target: T2, human GPC3 recombinant protein; assay: SPR (Biacore), VHH-His over human GPC3 on CM5; fit 197.5 - 17.34 nM; Rmax 10.9 RU; Chi2 0.466
Experimental: as §2

[23] = target: T2, human GPC3 recombinant protein; assay: SPR (Biacore), summary table; Chi2 0.266; Profile 'Good'
Experimental: as §2

[24] = target: T1, human GPC3 on HepG2 cells; assay: FACS, phage-displayed clone on HepG2, well F3; same clone on A-431 (no GPC3): 1.39%
[25] = target: T1, human GPC3 on HepG2 cells; assay: FACS, phage-displayed clone on HepG2, well F3; same clone on A-431 (no GPC3): 1412.11
[26] = target: T1, human GPC3 on HepG2 cells; assay: FACS, periplasmic extract 1:5 + anti-c-myc + GAM-APC on HepG2, well F3; same on A-431: 0.18%
[27] = target: T1, human GPC3 on HepG2 cells; assay: FACS, periplasmic extract 1:5 + anti-c-myc + GAM-APC on HepG2, well F3; same on A-431: 965.7
[28] = target: T2, human GPC3 recombinant protein; assay: SPR (Biacore) off-rate screen, periplasmic extract over human GPC3 on CM5; R0 39.2
Experimental: as §1

[29] = target: T2, human GPC3 recombinant protein; assay: SPR (Biacore), VHH-His over human GPC3 on CM5; fit 131.7 - 17.34 nM; Rmax 9.97 RU; Chi2 0.266
Experimental: as §2

[30] = target: T2, human GPC3 recombinant protein; assay: SPR epitope binning on human GPC3
Experimental: The 19 VHH-His tagged domains were then evaluated for epitope-binding site. All VHHs were injected one at a time to evaluate the epitope binding site for each VHH domain. […] Human GPC3 was injected followed by an off rate wash for 4 minutes. No binding is observed if the VHH binds at the same epitope as VHH2, while a second binding event is observed if the VHH binds at a different epitope. All VHHs were binned into two groups based on the epitopes. VHH2 and VHH3 bind the same epitope and all other VHs bind the second epitope (FIG. 19).

[31] = target: T1, human GPC3 on HepG2 cells; assay: FACS, phage-displayed clone on HepG2
Experimental: Binding of phage with surface expressed VHH domains to HepG2 cells was assessed using FACS. […] The cell suspension was distributed throughout at 96-well, U-bottom plate (85 μL/well) and incubated with phage (15 μL) on ice for 60 minutes with shaking.

[32] = target: T2, human GPC3 recombinant protein; assay: SPR (Biacore) off-rate screen, periplasmic extract over human GPC3 on CM5; R0 29.7
Experimental: as §1

T1 sequence (P51654 25-554 limits assumed): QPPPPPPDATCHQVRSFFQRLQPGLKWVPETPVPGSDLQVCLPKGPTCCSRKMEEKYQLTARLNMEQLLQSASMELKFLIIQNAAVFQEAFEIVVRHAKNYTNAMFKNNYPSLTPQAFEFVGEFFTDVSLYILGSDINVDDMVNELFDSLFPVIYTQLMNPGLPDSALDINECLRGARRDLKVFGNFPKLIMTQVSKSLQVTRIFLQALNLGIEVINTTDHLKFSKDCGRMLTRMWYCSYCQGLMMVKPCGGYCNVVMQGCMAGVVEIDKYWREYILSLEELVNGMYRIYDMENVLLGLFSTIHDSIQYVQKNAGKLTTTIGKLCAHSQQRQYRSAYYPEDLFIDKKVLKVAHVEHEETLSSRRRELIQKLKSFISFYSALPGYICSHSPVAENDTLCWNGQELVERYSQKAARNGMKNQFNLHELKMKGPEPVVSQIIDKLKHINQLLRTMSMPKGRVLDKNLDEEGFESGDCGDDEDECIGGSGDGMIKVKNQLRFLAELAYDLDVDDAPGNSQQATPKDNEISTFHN
T2 sequence (P51654 25-559 limits assumed): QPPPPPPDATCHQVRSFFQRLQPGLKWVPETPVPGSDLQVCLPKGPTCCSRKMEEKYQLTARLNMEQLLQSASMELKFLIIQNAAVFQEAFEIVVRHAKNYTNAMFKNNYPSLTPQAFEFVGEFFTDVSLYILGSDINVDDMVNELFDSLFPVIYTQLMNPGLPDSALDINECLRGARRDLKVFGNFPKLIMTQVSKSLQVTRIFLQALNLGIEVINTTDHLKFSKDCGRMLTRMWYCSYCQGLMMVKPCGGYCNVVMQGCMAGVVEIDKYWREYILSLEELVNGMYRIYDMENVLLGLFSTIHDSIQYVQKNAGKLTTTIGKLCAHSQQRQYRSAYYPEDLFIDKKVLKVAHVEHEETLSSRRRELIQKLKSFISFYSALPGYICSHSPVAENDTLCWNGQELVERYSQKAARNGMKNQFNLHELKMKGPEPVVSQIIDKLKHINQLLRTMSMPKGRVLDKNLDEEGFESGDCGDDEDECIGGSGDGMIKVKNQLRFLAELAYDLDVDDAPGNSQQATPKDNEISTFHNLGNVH

B1: VH29 (VHH)
VHH: QVQLVESGGGLVQPGGSLRLSCAASGFTFSSYAMSWVRQAPGKEPEWVSSISGGGSSTYYADSLKGRFTISRDNSKNTLYLQMNSLRAEDTAVYYCSRDPRFGEPPFDYWGQGTLVTVSS
notes: also called VHH29
Question: Which results are given for B1?
Answer: % of Binding [1]: 35.7%; Mean FL2-A [2]: 11100; % of Binding [3]: 1.43%; Mean FL4-A [4]: 931; koff [5]: 0.00493 s⁻¹

B2: anti-GPC3 VHH-His tagged domain VHH3 (VHH)
VHH: EVQLVESGGGVVQPGRSLRLSCAASGFTFSNYLMQWVRQAPGKGLVWLSNINSDGSSTDYADSVKGRFTISRDNAKNTLYLQMNSLRAEDTAVYYCRVGAFDYWGQGTLVTVSS
notes: Produced from a mammalian expression vector as a His fusion; not shown: His tag
Question: For B2, which Kd [6] is on record?
Answer: 3.23 nM

Question: And the % of Binding [7]?
Answer: 60.1%

Question: What about the Mean FL2-A [8] of the same binder?
Answer: 18600

Question: What about the % of Binding [9] of the same binder?
Answer: 0.27%

Question: And the Mean FL4-A [10]?
Answer: 796

Question: And the koff [11]?
Answer: 0.00154 s⁻¹

Question: What about the Ka [12] of the same binder?
Answer: 3.09e+08 M⁻¹

Question: What about the Kd [12] of the same binder?
Answer: 3.23 nM

Question: And the koff [12]?
Answer: 0.00141 s⁻¹

Question: What about the kon [12] of the same binder?
Answer: 435000 M⁻¹ s⁻¹

B3: VH27 (VHH)
VHH: B1 VHH with Q1E
notes: also called VHH27
Question: For B3, which koff [13] is on record?
Answer: 0.00387 s⁻¹

B4: VH21 (VHH)
VHH: B1 VHH with V48I, G54S, R98K
notes: also called VHH21
Question: How did the koff [14] turn out when B4 was run?
Answer: 0.00269 s⁻¹

B5: VH26 (VHH)
VHH: B1 VHH with Q1E, V48I, G54S, R98K
notes: also called VHH26
Question: With B5 as the binder, how does the koff [15] read?
Answer: 0.00379 s⁻¹

B6: VH36 (VHH)
VHH: B1 VHH with L115T
notes: also called VHH36
Question: With B6 as the binder, how does the koff [16] read?
Answer: 0.00566 s⁻¹

B7: anti-GPC3 VHH-His tagged domain VHH1 (VHH)
VHH: B1 VHH with Q1E, S56T, K65E, R98K, L115T
notes: as for B2
Question: With B7 as the binder, how does the koff [17] read?
Answer: 0.00247 s⁻¹

Question: What about the Kd [18] of the same binder?
Answer: 4.29 nM

Question: What about the Ka [19] of the same binder?
Answer: 1.66e+08 M⁻¹

Question: And the Kd [19]?
Answer: 6.01 nM

Question: And the koff [19]?
Answer: 0.00167 s⁻¹

Question: And the kon [19]?
Answer: 278000 M⁻¹ s⁻¹

B8: anti-GPC3 VHH-His tagged domain VHH7 (VHH)
VHH: B1 VHH with Q1E, L115T
notes: as for B2
Question: Which results are given for B8?
Answer: Kd [20]: 6.84 nM; koff [21]: 0.00457 s⁻¹; Ka [22]: 1.46e+08 M⁻¹; Kd [22]: 6.84 nM; koff [22]: 0.00262 s⁻¹; kon [22]: 383000 M⁻¹ s⁻¹

B9: anti-GPC3 VHH-His tagged domain VHH9 (VHH)
VHH: B1 VHH with F107L, L115T
notes: as for B2
Question: B9 was tested. Which Kd [23] did it give?
Answer: 6.15 nM

Question: And the % of Binding [24]?
Answer: 89%

Question: What about the Mean FL2-A [25] of the same binder?
Answer: 130000

Question: And the % of Binding [26]?
Answer: 0.52%

Question: What about the Mean FL4-A [27] of the same binder?
Answer: 1830

Question: What about the koff [28] of the same binder?
Answer: 0.0062 s⁻¹

Question: What about the Ka [29] of the same binder?
Answer: 1.63e+08 M⁻¹

Question: And the Kd [29]?
Answer: 6.15 nM

Question: What about the koff [29] of the same binder?
Answer: 0.00326 s⁻¹

Question: What about the kon [29] of the same binder?
Answer: 530000 M⁻¹ s⁻¹

B10: anti-GPC3 VHH-His tagged domain VHH19 (VHH)
VHH: B1 VHH with Q1E, V2E, S56G, S97A, F102Y, W110R, G111C, L115T
notes: as for B2
Question: Does B10 bind [30]?
Answer: binds

B11: VH32 (VHH)
VHH: QVQLVESGGGLVQPGGSLRLSCAASGFTFSSFAMSWVRQAPGKGLEWVSAISGSGGRTHYADSVKGRFTISRDNSKNTLYLQMNSLRAEDTAVYYCAKEALTGVFDYWGQGTLVTVSS
notes: also called VHH32
Question: Does B11 bind [31]?
Answer: no binding

Question: And the koff [32]?
Answer: 0.0948 s⁻¹
